{"source": "patent US9206432B2", "about": "“Sulfonylurea-responsive repressor proteins” (priority 2008, dated 2015)", "molecules": {"B1": {"name": "L1-22: SU-responsive TetR(B) variant, library L1 hit, SEQ ID NO: 7 (protein)", "chain": "MGSRLDKSKVINSALELLNEVGIEGLTTRKLAQKLGVEQPTLYWHVKNKRALLDALAIEMMDRHHTHFCPLEGESWQDFLRNTAKSYRCALLSHRDGAKVCLGTAITEKQYETKENNLAFLCQQGFSLENALYARQAVRVFTLGCVLFDQEMQVAKEERETPTTDSMPPLLRQASELLDHQGAEPAFLFGLELIICGLEKQLKSESGS", "modifications": "Sulfornylurea responsive repressor L1-22"}, "B2": {"name": "L1-29: SU-responsive TetR(B) variant, library L1 hit, SEQ ID NO: 10 (protein)", "chain": "MGSRLDKSKVINSALELLNEVGIEGLTTRKLAQKLGVEQPTLYWHVKNKRALLDALAIEMMDRHQTHFCPLEGESWQDFLRNTAKSMRCALLSHRDGAKVWLGTRWTEKQYETPENMLAFLCQQGFSLENALYAWSAVCNFTLGCVLSDQERQVAKEERETPTTDSMPPLLRQAWELSDHQGAEPAFLFGLELIICGLEKQLKCESGS", "modifications": "Sulfonylurea responsive repressor L1-29"}, "B3": {"name": "L1-24: SU-responsive TetR(B) variant, library L1 hit (protein)", "chain": "MGSRLDKSKVINSALELLNEVGIEGLTTRKLAQKLGVEQPTLYWHVKNKRALLDALAIEMLDRHNTHFCPLEGESWQDFLRNSAKSMRCALLSHRDGAKVLLGTAVTEKQYETTENSLAFLCQQGFSLENALYAIRAVRTFTLGCVLVDQERQVAKEERETPTTDSMPPLLRQAKELLDHQGAEPAFLFGLELIICGLEKQLKCESGS", "modifications": "Sulfonylurea responsive repressor L1-24"}, "B4": {"name": "L1-31: SU-responsive TetR(B) variant, library L1 hit (protein)", "chain": "MGSRLDKSKVINSALELLNEVGIEGLTTRKLAQKLGVEQPTLYWHVKNKRALLDALAIEMLDRHATHFCPLEGESWQDFLRNNAKSMRCALLSHRDGAKVMLGTRATEKQYETVENRLAFLCQQGFSLENALYAVRAVHWFTLGCVLIDQEMQVAKEERETPTTDSMPPLLRQAYELYDHQGAEPAFLFGLELIICGLEKQLKCESGS", "modifications": "Sulfonylurea responsive repressor L1-31"}, "B5": {"name": "L1-44: SU-responsive TetR(B) variant, library L1 hit, SEQ ID NO: 13 (protein)", "chain": "MGSRLDKSKVINSALELLNEVGIEGLTTRKLAQKLGVEQPTLYWHVKNKRALLDALAIEMLDRHATHFCPLEGESWQDFLRNNAKSYRCALLSHRDGAKVYLGTAVTEKQYETAENQLAFLCQQGFSLENALYAVKAVAGFTLGCVLWDQESQVAKEERETPTTASMPPLLRQAVELADHQGAEPAFLFGLELIICGLEKQLKCESGS", "modifications": "Sulfonylurea responsive repressor L1-44"}, "B6": {"name": "L1-28: SU-responsive TetR(B) variant, library L1 hit (protein)", "chain": "MGSRLDKSKVINSALELLNEVGIEGLTTRKLAQKLGVEQPTLYWHVKNKRALLDALAIEMLDRHATHFCPLEGESWQDFLRNNAKSMRCALLSHRDGAKVWLGTAWTEKQYETPENVLAFLCQQGFSLENALYASRAVVTFTLGCVLTDQEKQVAKEERETPTTDSMPPLLRQAWELLDHQGAEPAFLFGLELIICGLEKQLKCESGS", "modifications": "Sulfonylurea responsive repressor L1-28"}, "B7": {"name": "L1-9: SU-responsive TetR(B) variant, library L1 hit (protein)", "chain": "MGSRLDKSKVINSALELLNEVGIEGLTTRKLAQKLGVEQPTLYWHVKNKRALLDALAIEMLDRHATHFCPLEGESWQDFLRNNAKSMRCALLSHRDGAKVCLGTGFTEKQYETAENSLAFLCQQGFSLENALYAMQAVCIFTLGCVLLDQELQVAKEERETPTTDSMPPLLRQALELKDHQGAEPAFLFGLELIICGLEKQLKCESGS", "modifications": "Sulfonylurea responsive repressor L1-09"}}}
{"tested_on": "lacZ under control of the tetA promoter (PtetA) in E. coli KM3", "assay_type": "cell-based", "settings": "Table 4; chlorimuron 20 ppm; 48 hrs at 30° C."}
{"molecule": "B1", "relative β-galactosidase activity, inducer Ci": 10.4}
{"molecule": "B2", "relative β-galactosidase activity, inducer Ci": 20.9}
{"molecule": "B3", "relative β-galactosidase activity, inducer Ci": 22.1}
{"molecule": "B4", "relative β-galactosidase activity, inducer Ci": 1.1}
{"molecule": "B5", "relative β-galactosidase activity, inducer Ci": 6.7}
{"molecule": "B6", "relative β-galactosidase activity, inducer Ci": 14.6}
{"molecule": "B7", "relative β-galactosidase activity, inducer Ci": 9.8}
{"tested_on": "lacZ under control of the tetA promoter (PtetA) in E. coli KM3", "assay_type": "cell-based", "settings": "Table 4; chlorsulfuron 20 ppm; 48 hrs at 30° C."}
{"molecule": "B1", "relative β-galactosidase activity, inducer Cs": 0.2}
{"molecule": "B2", "relative β-galactosidase activity, inducer Cs": 15.8}
{"molecule": "B3", "relative β-galactosidase activity, inducer Cs": 3.3}
{"molecule": "B4", "relative β-galactosidase activity, inducer Cs": 1.4}
{"molecule": "B5", "relative β-galactosidase activity, inducer Cs": 12.0}
{"molecule": "B6", "relative β-galactosidase activity, inducer Cs": 5.8}
{"molecule": "B7", "relative β-galactosidase activity, inducer Cs": 23.6}
{"tested_on": "lacZ under control of the tetA promoter (PtetA) in E. coli KM3", "assay_type": "cell-based", "settings": "Table 4; ethametsulfuron 20 ppm; 48 hrs at 30° C."}
{"molecule": "B1", "relative β-galactosidase activity, inducer Es": 0.3}
{"molecule": "B2", "relative β-galactosidase activity, inducer Es": 1.7}
{"molecule": "B3", "relative β-galactosidase activity, inducer Es": 0.2}
{"molecule": "B4", "relative β-galactosidase activity, inducer Es": 13.7}
{"molecule": "B5", "relative β-galactosidase activity, inducer Es": 2.4}
{"molecule": "B6", "relative β-galactosidase activity, inducer Es": 0.8}
{"molecule": "B7", "relative β-galactosidase activity, inducer Es": 11.8}
{"tested_on": "lacZ under control of the tetA promoter (PtetA) in E. coli KM3", "assay_type": "cell-based", "settings": "Table 4; metsulfuron 20 ppm; 48 hrs at 30° C."}
{"molecule": "B1", "relative β-galactosidase activity, inducer Ms": 0.1}
{"molecule": "B2", "relative β-galactosidase activity, inducer Ms": 13.5}
{"molecule": "B3", "relative β-galactosidase activity, inducer Ms": 0.4}
{"molecule": "B4", "relative β-galactosidase activity, inducer Ms": 0.5}
{"molecule": "B5", "relative β-galactosidase activity, inducer Ms": 2.9}
{"molecule": "B6", "relative β-galactosidase activity, inducer Ms": 18.8}
{"molecule": "B7", "relative β-galactosidase activity, inducer Ms": 1.2}
{"tested_on": "lacZ under control of the tetA promoter (PtetA) in E. coli KM3", "assay_type": "cell-based", "settings": "Table 4; nicosulfuron 20 ppm; 48 hrs at 30° C."}
{"molecule": "B1", "relative β-galactosidase activity, inducer Ns": 0.2}
{"molecule": "B2", "relative β-galactosidase activity, inducer Ns": 0.1}
{"molecule": "B3", "relative β-galactosidase activity, inducer Ns": 0.3}
{"molecule": "B4", "relative β-galactosidase activity, inducer Ns": 0.5}
{"molecule": "B5", "relative β-galactosidase activity, inducer Ns": 0.4}
{"molecule": "B6", "relative β-galactosidase activity, inducer Ns": 0.1}
{"molecule": "B7", "relative β-galactosidase activity, inducer Ns": 0.3}
{"tested_on": "lacZ under control of the tetA promoter (PtetA) in E. coli KM3", "assay_type": "cell-based", "settings": "Table 4; rimsulfuron 20 ppm; 48 hrs at 30° C."}
{"molecule": "B1", "relative β-galactosidase activity, inducer Rs": 0.1}
{"molecule": "B2", "relative β-galactosidase activity, inducer Rs": 0.1}
{"molecule": "B3", "relative β-galactosidase activity, inducer Rs": 0.3}
{"molecule": "B4", "relative β-galactosidase activity, inducer Rs": 0.4}
{"molecule": "B5", "relative β-galactosidase activity, inducer Rs": 0.3}
{"molecule": "B6", "relative β-galactosidase activity, inducer Rs": 0.2}
{"molecule": "B7", "relative β-galactosidase activity, inducer Rs": 0.4}
{"tested_on": "lacZ under control of the tetA promoter (PtetA) in E. coli KM3", "assay_type": "cell-based", "settings": "Table 4; sulfometuron 20 ppm; 48 hrs at 30° C."}
{"molecule": "B1", "relative β-galactosidase activity, inducer Sm": 17.2}
{"molecule": "B2", "relative β-galactosidase activity, inducer Sm": 2.7}
{"molecule": "B3", "relative β-galactosidase activity, inducer Sm": 3.1}
{"molecule": "B4", "relative β-galactosidase activity, inducer Sm": 0.9}
{"molecule": "B5", "relative β-galactosidase activity, inducer Sm": 0.4}
{"molecule": "B6", "relative β-galactosidase activity, inducer Sm": 1.1}
{"molecule": "B7", "relative β-galactosidase activity, inducer Sm": 0.6}
{"tested_on": "lacZ under control of the tetA promoter (PtetA) in E. coli KM3", "assay_type": "cell-based", "settings": "Table 4; thifensulfuron 20 ppm; 48 hrs at 30° C."}
{"molecule": "B1", "relative β-galactosidase activity, inducer Ts": 0.0}
{"molecule": "B2", "relative β-galactosidase activity, inducer Ts": 0.0}
{"molecule": "B3", "relative β-galactosidase activity, inducer Ts": 0.3}
{"molecule": "B4", "relative β-galactosidase activity, inducer Ts": 0.9}
{"molecule": "B5", "relative β-galactosidase activity, inducer Ts": 1.9}
{"molecule": "B6", "relative β-galactosidase activity, inducer Ts": 0.1}
{"molecule": "B7", "relative β-galactosidase activity, inducer Ts": 1.1}
{"tested_on": "lacZ under control of the tetA promoter (PtetA) in E. coli KM3", "assay_type": "cell-based", "settings": "Table 4; tribenuron 20 ppm; 48 hrs at 30° C."}
{"molecule": "B1", "relative β-galactosidase activity, inducer Tb": 0.3}
{"molecule": "B2", "relative β-galactosidase activity, inducer Tb": 0.3}
{"molecule": "B3", "relative β-galactosidase activity, inducer Tb": 1.6}
{"molecule": "B4", "relative β-galactosidase activity, inducer Tb": 0.1}
{"molecule": "B5", "relative β-galactosidase activity, inducer Tb": 0.4}
{"molecule": "B6", "relative β-galactosidase activity, inducer Tb": 0.3}
{"molecule": "B7", "relative β-galactosidase activity, inducer Tb": 0.4}
{"tested_on": "lacZ under control of the tetA promoter (PtetA) in E. coli KM3", "assay_type": "cell-based", "settings": "Table 8; library L2 parents and hits"}
{"molecule": "B1", "inducer preference": 3}
{"molecule": "B2", "inducer preference": "9 (weak)"}
{"molecule": "B5", "inducer preference": "9 (weak)"}
{"molecule": "B7", "inducer preference": "4, 9 (weak)"}
{"tested_on": "lacZ under control of the tetA promoter (PtetA) in E. coli KM3", "assay_type": "cell-based", "settings": "Table 10; 48 hours at 30° C."}
{"molecule": "B1", "relative β-galactosidase activity, No inducer": 0.2}
{"molecule": "B2", "relative β-galactosidase activity, No inducer": 0.1}
{"molecule": "B5", "relative β-galactosidase activity, No inducer": 0.6}
{"molecule": "B7", "relative β-galactosidase activity, No inducer": 0.9}
{"tested_on": "lacZ under control of the tetA promoter (PtetA) in E. coli KM3", "assay_type": "cell-based", "settings": "Table 10; ethametsulfuron 2 ppm; 48 hours at 30° C."}
{"molecule": "B7", "relative β-galactosidase activity, inducer Es": 14.8}
{"tested_on": "lacZ under control of the tetA promoter (PtetA) in E. coli KM3", "assay_type": "cell-based", "settings": "first round hits, 20 ppm inducer (Table 4)"}
{"molecule": "B1", "activity on sulfonylurea inducers": "strong sulfometuron activity"}
{"molecule": "B2", "activity on sulfonylurea inducers": "moderate metsulfuron activity"}
{"molecule": "B5", "activity on sulfonylurea inducers": "moderate activity on metsulfuron, ethametsulfuron and chlorsulfuron"}
{"molecule": "B7", "activity on sulfonylurea inducers": "strong activity on both ethametsulfuron and chlorsulfuron"}
{"tested_on": "lacZ under control of the tetA promoter (PtetA) in E. coli KM3", "assay_type": "cell-based", "settings": "library L2 retest, inducers at 2 ppm"}
{"molecule": "B7", "induction response and background": "sensitivity to 2 ppm Es"}
